In US20150166621A1 (Hoffmann-La Roche, published 2015):
Read-outs that look alike come from different tables or passages of the source. Square brackets hold non-standard residues; d marks the D form. Nle = CCCC[C@H](N)C(=O)O; Mamp = not defined here; Nva = CCC[C@H](N)C(=O)O

Assays:
[1] = biological target: T1, Human eIF4E (aa 28-217) with a C-terminal His tag (human, UniProt P06730 28-217); assay: TR-FRET competition vs biotin-4G2 peptide on HH-eIF4E
T1 construct: also called HH-eIF4E; eukaryotic initiation factor 4E
Method: (§1) Test peptides (1.6 mM stock in DMSO) were diluted 3 fold in series in DMSO and solutions were diluted 4 fold in Assay Buffer (50 mM NaPi, pH 6.5, 50 mM KCl, 1 mM DTT, 0.004% NP40 and 0.5 mg/ml gammaglobulin). […] The samples were incubated at room temperature for 20 minutes.
(§2) IC50 values were calculated using Condoseo software (Genedata AG, Basel, Switzerland).

[2] = biological target: T1, Human eIF4E (aa 28-217) with a …; assay: as above; remark: listed apart in the source
Method: as §1, §2

T1 sequence (P06730 other isoform, or with tags, fused parts or gaps limits assumed): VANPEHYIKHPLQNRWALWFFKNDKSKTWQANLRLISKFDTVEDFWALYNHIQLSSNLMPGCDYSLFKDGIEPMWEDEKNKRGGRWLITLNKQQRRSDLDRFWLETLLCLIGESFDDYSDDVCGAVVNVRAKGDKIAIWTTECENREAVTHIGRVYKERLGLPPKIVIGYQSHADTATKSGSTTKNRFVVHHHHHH

Binder Ac-KQYDREFLLDFQFMPA-NH2 [peptide of SEQ ID NO: 52] has an IC50 [1] of 10.5 µM.

In the case of Ac-KQYDREFLLDFQFMAA-NH2 [peptide of SEQ ID NO: 57], the IC50 [1] is reported as 6.96 µM.

Ac-KQYDREFLLDFQFAPA-NH2 [peptide of SEQ ID NO: 58] was tested, and the IC50 [1] was 11.3 µM.

Ac-KQYDREFLLAFQFMPA-NH2 [peptide of SEQ ID NO: 59] showed an IC50 [1] of 1.42 µM.

Work on Ac-KQYDRAFLLDFQFMPA-NH2 [peptide of SEQ ID NO: 60] yielded an IC50 [1] of 9.26 µM.

Ac-KQYAREFLLDFQFMPA-NH2 [peptide of SEQ ID NO: 61] gave an IC50 [1] of 11.8 µM.

In the case of Ac-KAYDREFLLDFQFMPA-NH2 [peptide of SEQ ID NO: 62], the IC50 [1] is reported as 13.6 µM.

Ac-AQYDREFLLDFQFMPA-NH2 [peptide of SEQ ID NO: 63] showed an IC50 [1] of 12.3 µM.

Binder Ac-KQYDREFLLDFQFMP[dA]-NH2 [peptide of SEQ ID NO: 64] has an IC50 [1] of 8.69 µM.

Ac-KQYDREFLLDFQFM[dP]A-NH2 [peptide of SEQ ID NO: 65] gave an IC50 [1] of 7.69 µM.

With Ac-KQYDREFLLDFQF[dM]PA-NH2 [peptide of SEQ ID NO: 66] the IC50 [1] was 7.75 µM.

Ac-KQYDREFLLDFQ[dF]MPA-NH2 [peptide of SEQ ID NO: 67] was tested, and the IC50 [1] was 13.7 µM.

B1: peptide of SEQ ID NO: 70 (peptide)
peptide: Ac-YDREFLLDFQF[Nle]-NH2
SMILES: CCCC[C@H](NC(=O)[C@H](Cc1ccccc1)NC(=O)[C@H](CCC(N)=O)NC(=O)[C@H](Cc1ccccc1)NC(=O)[C@H](CC(=O)O)NC(=O)[C@H](CC(C)C)NC(=O)[C@H](CC(C)C)NC(=O)[C@H](Cc1ccccc1)NC(=O)[C@H](CCC(=O)O)NC(=O)[C@H](CCCNC(=N)N)NC(=O)[C@H](CC(=O)O)NC(=O)[C@H](Cc1ccc(O)cc1)NC(C)=O)C(N)=O
For B1, the IC50 [1] was 3.39 µM.

Binder Ac-YDREFLLDFQFM-NH2 [peptide of SEQ ID NO: 68] has an IC50 [1] of 13.1 µM.

YDRQFLLDFQFL (N-terminal Ac; Nle at 12; C-terminal NH2) [peptide of SEQ ID NO: 71] was tested, and the IC50 [1] was 11 µM.

B2: peptide of SEQ ID NO: 74 (peptide)
peptide: Ac-YNREFLLDFQF[Nle]-NH2
SMILES: CCCC[C@H](NC(=O)[C@H](Cc1ccccc1)NC(=O)[C@H](CCC(N)=O)NC(=O)[C@H](Cc1ccccc1)NC(=O)[C@H](CC(=O)O)NC(=O)[C@H](CC(C)C)NC(=O)[C@H](CC(C)C)NC(=O)[C@H](Cc1ccccc1)NC(=O)[C@H](CCC(=O)O)NC(=O)[C@H](CCCNC(=N)N)NC(=O)[C@H](CC(N)=O)NC(=O)[C@H](Cc1ccc(O)cc1)NC(C)=O)C(N)=O
B2 gave an IC50 [1] of 10.9 µM.

For YNRQFLLDFQFL (N-terminal Ac; Nle at 12; C-terminal NH2) [peptide of SEQ ID NO: 75], the IC50 [1] was 11 µM.

Ac-YDREFLLDFQF-NH2 [peptide of SEQ ID NO: 69] gave an IC50 [1] of 12.4 µM.

In the case of Ac-Y[Mamb]LLAFQF[Nle]-NH2 [peptide of SEQ ID NO: 76], the IC50 [1] is reported as 12 µM.

Ac-F[5Ava]LLAFQF[Nle]-NH2 [peptide of SEQ ID NO: 79] was tested, and the IC50 [1] was 9.34 µM.

For Ac-Y[Mamp]LLAFQF[Nle]-NH2 (reading uncertain) [peptide of SEQ ID NO: 77], the IC50 [1] was 5.35 µM.

B3: peptide of SEQ ID NO: 78 (peptide)
peptide: Ac-Y[Nva]LLAFQF[Nle]-NH2
SMILES: CCCC[C@H](NC(=O)[C@H](Cc1ccccc1)NC(=O)[C@H](CCC(N)=O)NC(=O)[C@H](Cc1ccccc1)NC(=O)[C@H](C)NC(=O)[C@H](CC(C)C)NC(=O)[C@H](CC(C)C)NC(=O)[C@H](CCC)NC(=O)[C@H](Cc1ccc(O)cc1)NC(C)=O)C(N)=O
B3 showed an IC50 [1] of 6.63 µM.

B4: peptide of SEQ ID NO: 80 (peptide)
peptide: Ac-KRYDREFLLAFQF[Nle]-NH2
SMILES: CCCC[C@H](NC(=O)[C@H](Cc1ccccc1)NC(=O)[C@H](CCC(N)=O)NC(=O)[C@H](Cc1ccccc1)NC(=O)[C@H](C)NC(=O)[C@H](CC(C)C)NC(=O)[C@H](CC(C)C)NC(=O)[C@H](Cc1ccccc1)NC(=O)[C@H](CCC(=O)O)NC(=O)[C@H](CCCNC(=N)N)NC(=O)[C@H](CC(=O)O)NC(=O)[C@H](Cc1ccc(O)cc1)NC(=O)[C@H](CCCNC(=N)N)NC(=O)[C@H](CCCCN)NC(C)=O)C(N)=O
In the case of B4, the IC50 [1] is reported as 0.643 µM.

B5: peptide of SEQ ID NO: 84 (peptide)
peptide: Ac-KRFDREFLLAFQF[Nle]-NH2
SMILES: CCCC[C@H](NC(=O)[C@H](Cc1ccccc1)NC(=O)[C@H](CCC(N)=O)NC(=O)[C@H](Cc1ccccc1)NC(=O)[C@H](C)NC(=O)[C@H](CC(C)C)NC(=O)[C@H](CC(C)C)NC(=O)[C@H](Cc1ccccc1)NC(=O)[C@H](CCC(=O)O)NC(=O)[C@H](CCCNC(=N)N)NC(=O)[C@H](CC(=O)O)NC(=O)[C@H](Cc1ccccc1)NC(=O)[C@H](CCCNC(=N)N)NC(=O)[C@H](CCCCN)NC(C)=O)C(N)=O
With B5 the IC50 [1] was 4.07 µM.

In the case of Ac-QYDREFLLDFQFMPA-NH2 [peptide of SEQ ID NO: 81], the IC50 [1] is reported as 8.68 µM.

Ac-YDREFLLDFQFMPA-NH2 [peptide of SEQ ID NO: 82] showed an IC50 [1] of 7.52 µM.

For Ac-[dK]QYDREFLLDFQFMPA-NH2 [peptide of SEQ ID NO: 83], the IC50 [1] was 1.67 µM.

B6: peptide of SEQ ID NO: 85 (peptide)
peptide: Ac-KRKRFDREFLLAFQF[Nle]-NH2
SMILES: CCCC[C@H](NC(=O)[C@H](Cc1ccccc1)NC(=O)[C@H](CCC(N)=O)NC(=O)[C@H](Cc1ccccc1)NC(=O)[C@H](C)NC(=O)[C@H](CC(C)C)NC(=O)[C@H](CC(C)C)NC(=O)[C@H](Cc1ccccc1)NC(=O)[C@H](CCC(=O)O)NC(=O)[C@H](CCCNC(=N)N)NC(=O)[C@H](CC(=O)O)NC(=O)[C@H](Cc1ccccc1)NC(=O)[C@H](CCCNC(=N)N)NC(=O)[C@H](CCCCN)NC(=O)[C@H](CCCNC(=N)N)NC(=O)[C@H](CCCCN)NC(C)=O)C(N)=O
With B6 the IC50 [1] was 0.32 µM.

B7: peptide of SEQ ID NO: 7 (peptide)
peptide: Ac-KRYDREFLLAFQF[Nle]VYDLGLRRLRQRRRLRR-NH2
SMILES: CCCC[C@H](NC(=O)[C@H](Cc1ccccc1)NC(=O)[C@H](CCC(N)=O)NC(=O)[C@H](Cc1ccccc1)NC(=O)[C@H](C)NC(=O)[C@H](CC(C)C)NC(=O)[C@H](CC(C)C)NC(=O)[C@H](Cc1ccccc1)NC(=O)[C@H](CCC(=O)O)NC(=O)[C@H](CCCNC(=N)N)NC(=O)[C@H](CC(=O)O)NC(=O)[C@H](Cc1ccc(O)cc1)NC(=O)[C@H](CCCNC(=N)N)NC(=O)[C@H](CCCCN)NC(C)=O)C(=O)N[C@H](C(=O)N[C@@H](Cc1ccc(O)cc1)C(=O)N[C@@H](CC(=O)O)C(=O)N[C@@H](CC(C)C)C(=O)NCC(=O)N[C@@H](CC(C)C)C(=O)N[C@@H](CCCNC(=N)N)C(=O)N[C@@H](CCCNC(=N)N)C(=O)N[C@@H](CC(C)C)C(=O)N[C@@H](CCCNC(=N)N)C(=O)N[C@@H](CCC(N)=O)C(=O)N[C@@H](CCCNC(=N)N)C(=O)N[C@@H](CCCNC(=N)N)C(=O)N[C@@H](CCCNC(=N)N)C(=O)N[C@@H](CC(C)C)C(=O)N[C@@H](CCCNC(=N)N)C(=O)N[C@@H](CCCNC(=N)N)C(N)=O)C(C)C
B7 was tested, and the IC50 [2] was 0.21 µM.

B8: peptide of SEQ ID NO: 22 (peptide)
peptide: Ac-KRYDREFLLAFQF[Nle]RRLRQRRRLRRERVRA-NH2
SMILES: CCCC[C@H](NC(=O)[C@H](Cc1ccccc1)NC(=O)[C@H](CCC(N)=O)NC(=O)[C@H](Cc1ccccc1)NC(=O)[C@H](C)NC(=O)[C@H](CC(C)C)NC(=O)[C@H](CC(C)C)NC(=O)[C@H](Cc1ccccc1)NC(=O)[C@H](CCC(=O)O)NC(=O)[C@H](CCCNC(=N)N)NC(=O)[C@H](CC(=O)O)NC(=O)[C@H](Cc1ccc(O)cc1)NC(=O)[C@H](CCCNC(=N)N)NC(=O)[C@H](CCCCN)NC(C)=O)C(=O)N[C@@H](CCCNC(=N)N)C(=O)N[C@@H](CCCNC(=N)N)C(=O)N[C@@H](CC(C)C)C(=O)N[C@@H](CCCNC(=N)N)C(=O)N[C@@H](CCC(N)=O)C(=O)N[C@@H](CCCNC(=N)N)C(=O)N[C@@H](CCCNC(=N)N)C(=O)N[C@@H](CCCNC(=N)N)C(=O)N[C@@H](CC(C)C)C(=O)N[C@@H](CCCNC(=N)N)C(=O)N[C@@H](CCCNC(=N)N)C(=O)N[C@@H](CCC(=O)O)C(=O)N[C@@H](CCCNC(=N)N)C(=O)N[C@H](C(=O)N[C@@H](CCCNC(=N)N)C(=O)N[C@@H](C)C(N)=O)C(C)C
With B8 the IC50 [2] was 0.198 µM.

Work on Ac-KQYDREFLLDFQFMP-NH2 [peptide of SEQ ID NO: 53] yielded an IC50 [1] of 7.46 µM.

Ac-KQYDREFLLDFQFM-NH2 [peptide of SEQ ID NO: 54] showed an IC50 [1] of 8.84 µM.

With Ac-KQYDREFLLDFQF-NH2 [peptide of SEQ ID NO: 55] the IC50 [1] was 14.6 µM.

With Ac-KQYDREFLLDF-NH2 [peptide of SEQ ID NO: 56] the IC50 [1] was 3.44 µM.
